Experiments:
Fc protein = molecular target: T1, Fc protein; assay: ELISA, Fc protein coated, 100 ng dAb per well
T1 construct: counter-screen antigen for the Fc moiety of PDL1-Fc

PDL1-Fc fusion protein [1] = molecular target: T2, PDL1-Fc fusion protein (human); assay: ELISA, ratio of OD on PDL1-Fc to OD on Fc protein
T2 construct: expressed in CHO or HEK293 cells; also called Human PDL1-Fc; recombinant human PDL1-Fc

PDL1-Fc fusion protein [2] = molecular target: T2, PDL1-Fc fusion protein; assay: ELISA, ratio of OD on PDL1-Fc to OD of blank control
PDL1-Fc fusion protein [3] = molecular target: T2, PDL1-Fc fusion protein; assay: ELISA, PDL1-Fc coated, 100 ng dAb per well, anti-His detection
PDL1-Fc fusion protein [4] = molecular target: T2, PDL1-Fc fusion protein; assay: competitive ELISA, PDL1-Fc coated, 100 ng dAb and 10 ug PD1-Fc-Biotin (competitor); remaining PD1-Fc-Biotin signal
Mouse PDL1-Fc protein = molecular target: T3, Mouse PDL1-Fc protein (mouse); assay: ELISA, mouse PDL1-Fc coated, anti-His detection
T3 construct: expressed in HEK293 cells; also called mouse PDL1-Fc fusion protein; mice PDL1-Fc

[5] = molecular target: T4, human PDL1 protein on the cell membrane (human, UniProt Q9NZQ7 19-290); assay: flow cytometry competition: 293-PDL1 cells, single domain antibody plus hPD-1-Fc-biotin 0.3 µg (blocked ligand), SA-PE; right panel
T4 construct: whole, on cells; also used here for Raji-PDL1 cells and for native PDL1 on lung cancer tissue sections; also called Raji-PDL1

PDL1-Fc fusion protein [6] = molecular target: T2, PDL1-Fc fusion protein; assay: SPR, BIAcore X100, PDL1-Fc on CM5 chip, antibody as analyte, 25 C
PDL1-Fc fusion protein [7] = molecular target: T2, PDL1-Fc fusion protein; assay: ELISA, dAb coated 0.5 ug/well, dilution series of PDL1-Fc, anti-human IgG-Fc-HRP
PDL1-Fc fusion protein [8] = molecular target: T2, PDL1-Fc fusion protein; assay: competitive ELISA, PDL1-Fc coated, dilution series of antibody with 100 ug/mL PD1-Fc-Biotin (competitor)
PDL1-Fc fusion protein [9] = molecular target: T2, PDL1-Fc fusion protein; assay: competitive ELISA: PDL1-Fc coated 0.5 µg/well, dilution series of the antibody with PD1-Fc-Biotin 100 µg/mL (blocked ligand), SA-HRP, OD405; the sheet labels it EC50, paragraph 198 calls it IC50; unit from the axis
PDL1-Fc fusion protein [10] = molecular target: T2, PDL1-Fc fusion protein; assay: ELISA: plate coated with the single domain antibody 0.5 µg/well, dilution series of PDL1-Fc, anti-human IgG-Fc-HRP, OD405, four-parameter fit; unit from the axis 'Log Conc(ng/mL)', the concentration of PDL1-Fc

| Binder | OD (against Fc) (Fc protein) | OD (PDL1/Fc) (PDL1-Fc fusion protein [1]) | OD (PDL1/blank) (PDL1-Fc fusion protein [2]) | OD (against PDL1) (PDL1-Fc fusion protein [3]) | OD (PDL1-Fc fusion protein [4]) | binding result (Mouse PDL1-Fc protein) | binding result [5] | Kd (PDL1-Fc fusion protein [6]) | EC50 (PDL1-Fc fusion protein [7]) | IC50 (PDL1-Fc fusion protein [8]) | IC50 (PDL1-Fc fusion protein [9]) | EC50 (PDL1-Fc fusion protein [10]) |
| --- | --- | --- | --- | --- | --- | --- | --- | --- | --- | --- | --- | --- |
| PDL1-10 dAb (VHH, camel heavy chain single domain antibody expressed in E. coli, purified on nickel; also called antibody No. 10; not shown: His tag from expression vector PET32b) VHH: QVQLQESGGGSVQAGGSLRLSCAASGNIVSSYCMGWFRQAPGKERVGVAAIDSDGTTKYADSMKGRFTISKDNAKNTLDLQMNSLKPEDTAMYYCVARLNCPGPVDWVPMFPYRGQGTQVTVSS | 0.099 OD (405 nm) | 8.63 ratio | 15.8 ratio | 0.854 OD (405 nm) | 0.126 OD (405 nm) | no binding (tested: 100 ng per well) | binds |  |  |  |  |  |
| PDL1-69 dAb (VHH, camel heavy chain single domain antibody expressed in E. coli, purified on nickel; also called antibody No. 69; not shown: His tag from expression vector PET32b) VHH: QVQLQESGGGSVQAGGSLRLSCAVQRNISSSYCMAWFRQAPGKQRERVDKILTTPGNTYLADSVKGRFTISQNNAKSTVYLQMNSLKPEDTAMYYCAADSFQKPTCTVVASWPAFQYWGQGTQVTVSS | 0.165 OD (405 nm) | 7.1 ratio | 21.7 ratio | 1.17 OD (405 nm) |  |  |  |  |  |  |  |  |
| PDL1-27 dAb (VHH, camel heavy chain single domain antibody expressed in E. coli, purified on nickel; also called antibody No. 27; not shown: His tag from expression vector PET32b) VHH: QVQLQESGGGSVQAGGSLRLSCAASGNISSRRCMAWFRQAPGKERERVANILTTTGNTYLADSVKGRFTISQNNAKSTVYLQMNSLKPEDTAMYYCAADSFHDPTCTVVASSGAFQYWGQGTQVTVSS | 0.08 OD (405 nm) | 32.8 ratio | 48.5 ratio | 2.62 OD (405 nm) | 0.161 OD (405 nm) |  |  | 0.771 nM | ~0.005 µg/mL | ~0.917 µg/mL | 0.917 µg/mL | 0.00568 µg/mL |
| PDL1-38 dAb (VHH, camel heavy chain single domain antibody expressed in E. coli, purified on nickel; also called antibody No. 38; not shown: His tag from expression vector PET32b) VHH: QVQLQESGGGSVQAGGSLRLSCAVSGFISSRRCMGWFRQAPGKERVGVANITGTGNTYLADSVKGRFTISQNNAKSTVYLQMNSLKPEDTAMYYCAADSFPTCTVVASSGAFQYWGQGTQVTVSS | 0.065 OD (405 nm) | 30.5 ratio | 36.7 ratio | 1.98 OD (405 nm) |  |  |  |  |  |  |  |  |

Continued, values first:

| OD (against Fc) (Fc protein) | OD (PDL1/Fc) (PDL1-Fc fusion protein [1]) | OD (PDL1/blank) (PDL1-Fc fusion protein [2]) | OD (against PDL1) (PDL1-Fc fusion protein [3]) | OD (PDL1-Fc fusion protein [4]) | binding result (Mouse PDL1-Fc protein) | binding result [5] | Kd (PDL1-Fc fusion protein [6]) | EC50 (PDL1-Fc fusion protein [7]) | IC50 (PDL1-Fc fusion protein [8]) | IC50 (PDL1-Fc fusion protein [9]) | EC50 (PDL1-Fc fusion protein [10]) | Binder |
| --- | --- | --- | --- | --- | --- | --- | --- | --- | --- | --- | --- | --- |
| 0.124 OD (405 nm) | 18 ratio | 41.4 ratio | 2.24 OD (405 nm) | 0.897 OD (405 nm) |  |  |  |  |  |  |  | PDL1-87 dAb (VHH, camel heavy chain single domain antibody expressed in E. coli, purified on nickel; also called antibody No. 87; not shown: His tag from expression vector PET32b) VHH: QVQLQESGGGSVQAGGSLKLSCAASGYIFSSCGMGWYRQAPGKERELVSTISSDGTTSYADSVKGRFTISQDNAKNTLYLQMNSLKTEDTAVYYCVADCPPIPEFTSCSGGYCLSGDYWGQGTQVTVSS |
| 0.085 OD (405 nm) | 10.3 ratio | 16.2 ratio | 0.875 OD (405 nm) |  |  |  |  |  |  |  |  | PDL1-94 dAb (VHH, camel heavy chain single domain antibody expressed in E. coli, purified on nickel; also called antibody No. 94; not shown: His tag from expression vector PET32b) VHH: QVQLQESGGGSVQAGGSLRLSCAASLNIFSSYCMGWFRQAPGKQRVGVATIDSDGTTRYVDSVKGRFTISKDNAKNTLDLQMNSLKPEDTAMYYCAARLNCPGPVDWVPMFPYRGQGTQVTVSS |
| 0.085 OD (405 nm) | 31.5 ratio | 49.6 ratio | 2.68 OD (405 nm) | 0.429 OD (405 nm) |  |  | 0.548 nM |  |  |  |  | PDL1-81 dAb (VHH, camel heavy chain single domain antibody expressed in E. coli, purified on nickel; also called antibody No. 81; not shown: His tag from expression vector PET32b) VHH: QVQLQESGGGSVQAGGSLRLSCAASGNIIRVRCMAWFRQAPGKERERGPNILTTTISTYLADSVKGRFTISQNNAKSTVYLQMNSLKPEDTAMYYCAADSFGYPTCPGPASSGAFQYWGQGTQVTVSS |

From patent publication US20180327494A1 (SUZHOU ALPHAMAB, published 2018)
